Measured values published in IntAct's records for PubMed 27832861.

B1: Aquaporin-7 (Homo sapiens), O14520 (parent)
chain: MVQASGHRRSTRGSKMVSWSVIAKIQEILQRKMVREFLAEFMSTYVMMVFGLGSVAHMVLNKKYGSYLGVNLGFGFGVTMGVHVAGRISGAHMNAAVTFANCALGRVPWRKFPVYVLGQFLGSFLAAATIYSLFYTAILHFSGGQLMVTGPVATAGIFATYLPDHMTLWRGFLNEAWLTGMLQLCLFAITDQENNPALPGTEALVIGILVVIIGVSLGMNTGYAINPSRDLPPRIFTFIAGWGKQVFSNGENWWWVPVVAPLLGAYLGGIIYLVFIGSTIPREPLKLEDSVAYEDHGITVLPKMGSHEPTISPLTPVSVSPANRSSVHPAPPLHESMALEHF
partner: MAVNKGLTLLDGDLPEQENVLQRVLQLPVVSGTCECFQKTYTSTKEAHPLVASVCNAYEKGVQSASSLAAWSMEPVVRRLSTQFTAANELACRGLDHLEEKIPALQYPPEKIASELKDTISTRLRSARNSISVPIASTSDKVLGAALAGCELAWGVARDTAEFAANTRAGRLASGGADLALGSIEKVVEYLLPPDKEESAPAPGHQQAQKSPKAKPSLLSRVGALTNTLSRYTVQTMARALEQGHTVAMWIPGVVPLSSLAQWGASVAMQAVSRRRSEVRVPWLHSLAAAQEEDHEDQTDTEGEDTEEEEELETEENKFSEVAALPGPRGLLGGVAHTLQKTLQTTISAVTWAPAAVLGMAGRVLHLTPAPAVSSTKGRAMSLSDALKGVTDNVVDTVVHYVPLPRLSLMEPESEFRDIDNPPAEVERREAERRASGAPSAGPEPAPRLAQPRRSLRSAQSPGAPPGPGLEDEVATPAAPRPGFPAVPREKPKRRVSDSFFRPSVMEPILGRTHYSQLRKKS

Variants of: B1
Settings: with plin1_human PLIN1, O60240

Variant	effect of a mutation on the interaction
MVQASGHRRAARGSKMVSWSVIAKIQEILQRKMVREFLAEFMSTYVMMVFGLGSVAHMVLNKKYGSYLGVNLGFGFGVTMGVHVAGRISGAHMNAAVTFANCALGRVPWRKFPVYVLGQFLGSFLAAATIYSLFYTAILHFSGGQLMVTGPVATAGIFATYLPDHMTLWRGFLNEAWLTGMLQLCLFAITDQENNPALPGTEALVIGILVVIIGVSLGMNTGYAINPSRDLPPRIFTFIAGWGKQVFSNGENWWWVPVVAPLLGAYLGGIIYLVFIGSTIPREPLKLEDSVAYEDHGITVLPKMGSHEPTISPLTPVSVSPANRSSVHPAPPLHESMALEHF [S10A;T11A]	disrupting interaction strength
